Sequences and labels used below:
B1: MAb 716 (antibody, V domains shown)
VH: EVQLLESGGGLIQPGGSLRLSCAASGFTVSSNYMSWVRQAPGKGLEWVSVIYSGGSTYYADSVKGRFTISRDNSKNTLYLQMNSLRAEDTAVYYCARNYYGSTYDYWGQGTLVTVSS
VL: EIVLTQSPVTLSVPPGERASLSCRASQNIYTAVAWYQQKPGQAPRLLIYGASTRATGIPARFSGGGSGTDYTLTISSLESEDFAVYHCQQYHSWPLTFGGGTKLEIK
notes: also called 142 F2; H1280/L250
B2: MAb 1714 (antibody, V domains shown)
VH: EVQLVESGGGLIQPGGSLRLSCAVSGLNVSRDYMSWVRQAPGKGLEWISVIYRGGATMYADSVKGRFTISRDTSKNTVFLQMSRLKVADTAVYYCARNYYGSTFDYWGQGTLVTVSS
VL: B1 VL with Y91W
notes: IgG1/kappa, CHO; also called H1678/L332
B3: MAb 1777 (antibody, V domains shown)
VH: B2 VH with F104I
VL: B1 VL with Y91W
notes: IgG1/kappa, CHO; also called H1684/L332
B4: MAb 1775 (antibody, V domains shown)
VH: B2 VH with F104M
VL: B1 VL with Y91W
notes: IgG1/kappa, CHO; also called H1687/L332
B5: MAb 1999 (antibody, V domains shown)
VH: B2 VH with A56I, F104L
VL: B1 VL with G50N, Y91W
notes: IgG1/kappa, CHO; also called H1824/L459
B6: MAb 1989 (antibody, V domains shown)
VH: B2 VH with G54V, F104L
VL: B1 VL with G50N, Y91W
notes: IgG1/kappa, CHO; also called H1814/L459
B7: MAb 2006 (antibody, V domains shown)
VH: B2 VH with M58H, F104L
VL: B1 VL with G50N, Y91W
notes: IgG1/kappa, CHO; also called H1831/L459
B8: MAb 1988 (antibody, V domains shown)
VH: B2 VH with G54I, F104L
VL: B1 VL with G50N, Y91W
notes: IgG1/kappa, CHO; also called H1813/L459
B9: MAb 805 (antibody, V domains shown)
VH: B2 VH with F104Y
VL: B1 VL
notes: also called 156 H7; H1329/L250
B10: MAb 2019 (antibody, V domains shown)
VH: B2 VH with A56V, F104L
VL: B1 VL with G50N, Y91W
notes: IgG1/kappa, CHO; also called H1844/L459
B11: MAb 1029 (antibody, V domains shown)
VH: B1 VH with S56R, N73S, N98L
VL: B1 VL
notes: IgG1/kappa, CHO; also called H1479/L250
B12: MAb 892 (antibody, V domains shown)
VH: B1 VH with S56R, N73S, T103L
VL: B1 VL
notes: IgG1/kappa, CHO; also called H1388/L250
B13: MAb 1066 (antibody, V domains shown)
VH: B1 VH with S56R, N73S, Y104L
VL: B1 VL
notes: IgG1/kappa, CHO; also called H1487/L250
B14: MAb 1038 (antibody, V domains shown)
VH: B1 VH with S56R, N73S, Y104M
VL: B1 VL
notes: IgG1/kappa, CHO; also called H1483/L250
B15: MAb 1131 (antibody, V domains shown)
VH: B1 VH with S56R, N73S, Y104H
VL: B1 VL with Y91W
notes: IgG1/kappa, CHO; also called H1518/L332
B16: MAb 1028 (antibody, V domains shown)
VH: B1 VH with S56R, N73S, N98T
VL: B1 VL
notes: IgG1/kappa, CHO; also called H1478/L250
B17: MAb 1043 (antibody, V domains shown)
VH: B1 VH with S56R, N73S, Y104M
VL: B1 VL with Y91W
notes: IgG1/kappa, CHO; also called H1483/L332
B18: MAb 874 (antibody, V domains shown)
VH: B1 VH with S56R, N73S, Y100A
VL: B1 VL
notes: IgG1/kappa, CHO; also called H1373/L250
B19: MAb 1036 (antibody, V domains shown)
VH: B1 VH with S56R, N73S, N98T
VL: B1 VL with Y91W
notes: IgG1/kappa, CHO; also called H1478/L332
B20: MAb 1037 (antibody, V domains shown)
VH: B1 VH with S56R, N73S, Y104F
VL: B1 VL
notes: IgG1/kappa, CHO; also called H1482/L250
B21: MAb 1042 (antibody, V domains shown)
VH: B1 VH with S56R, N73S, Y104F
VL: B1 VL with Y91W
notes: IgG1/kappa, CHO; also called H1482/L332
B22: MAb 1210 (antibody, V domains shown)
VH: B1 VH with S56R, N73S, Y104V
VL: B1 VL with Y91W
notes: IgG1/kappa, CHO; also called H1557/L332
B23: MAb 1067 (antibody, V domains shown)
VH: B1 VH with S56R, N73S, Y104L
VL: B1 VL with Y91W
notes: IgG1/kappa, CHO; also called H1487/L332
B24: MAb 1132 (antibody, V domains shown)
VH: B1 VH with S56R, N73S, Y104H
VL: B1 VL
notes: IgG1/kappa, CHO; also called H1518/L250

Numbering of substitutions follows the chain as printed. “And” between values parts separate entries of the source, which are not always exact repeats. Identical values can stand only once.

The target in one experiment is T1, tumor necrosis factor alpha (TNFα) (human, UniProt P01375 77-233). Briefly: cell-based or functional assay.
T1 sequence (P01375 77-233 limits assumed): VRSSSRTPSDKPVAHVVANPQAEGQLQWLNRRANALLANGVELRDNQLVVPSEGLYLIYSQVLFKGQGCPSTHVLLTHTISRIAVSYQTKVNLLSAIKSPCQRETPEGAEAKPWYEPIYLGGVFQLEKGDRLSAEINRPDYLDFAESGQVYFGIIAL
B1: the “IC50, TNFα cytotoxicity assay (WEHI-13VAR cells)” value (“IC50, TNFα cytotoxicity assay” for short) was 31.4 nM.
Consider B2, for which the “IC50, TNFα cytotoxicity assay” value worked out at 1.3 nM.
On the same count and under the same terms, under B3 stands 7 nM.
With B4, the “IC50, TNFα cytotoxicity assay” value is 6.5 nM.
B5: the “IC50, TNFα cytotoxicity assay” value is 0.3 nM.
Turning to B6, the “IC50, TNFα cytotoxicity assay” value is 0.2 nM.
In the case of B7, the “IC50, TNFα cytotoxicity assay” value was 0.3 nM.
B8: the “IC50, TNFα cytotoxicity assay” value amounted to 0.2 nM.
In the case of B9, the “IC50, TNFα cytotoxicity assay” value was 4.8 nM and 10.3 nM.
Turning to B10, the “IC50, TNFα cytotoxicity assay” value was 0.3 nM.

The next experiment deals with T1, tumor necrosis factor alpha (TNFα). Briefly: affinity by IC50 ELISA (so named in paragraph 380). For orientation: An ELISA detects its analyte on a solid surface through an enzyme-linked reagent.
On to B1, for which the Affinity is above 10 nM.
In turn, B9 gave an Affinity of 0.6 nM.

The next experiment has the same target. The experiment is described as follows: affinity by IC50 ELISA (so named in paragraph 380). The source holds these as a separate data set.
Molecule B11 yielded an Affinity of 0.36 nM.
As for B2, the Affinity came to 0.16 nM.
B3: the Affinity is 0.18 nM.
In the case of B12, the Affinity was found to be 0.43 nM.
Same read-out and setting: under B13 stands 0.13 nM; under B14, 0.25 nM.
Regarding B15, the Affinity is 0.13 nM.
As for B16, the Affinity amounted to 0.32 nM.
As to B4, the Affinity is 0.22 nM.
In turn, B5 showed an Affinity of 0.04 nM.
B17 returned an Affinity of 0.31 nM.
B6: the Affinity was 0.05 nM.
On to B7, for which the Affinity was 0.04 nM.
B8 yielded an Affinity of 0.04 nM.
Take B18: the Affinity turned out to be 0.56 nM.
Still for that read-out and setting: under B19 stands 0.18 nM; under B10, 0.04 nM; under B20, 0.12 nM.
Regarding B21, the Affinity amounted to 0.07 nM.
B22 came in with an Affinity of 0.14 nM.
B23 yielded an Affinity of 0.12 nM.
Consider B24, for which the Affinity came to 0.1 nM.

A further experiment shares this target. Briefly: affinity by IC50 ELISA (so named in paragraph 380). This is another data set of the same source.
B1 came in with an Affinity above 10 nM.
As to B9, the Affinity amounted to 0.6 nM.

The target is the same in another experiment. Briefly: affinity by IC50 ELISA (so named in paragraph 380). This is another data set of the same source.
Regarding B11, the Affinity came out at 0.36 nM.
B12 showed an Affinity of 0.43 nM.
Take B13: the Affinity was found to be 0.13 nM.
On to B14, for which the Affinity stood at 0.25 nM.
For the molecule B16, the Affinity was 0.32 nM.
In turn, B18 returned an Affinity of 0.56 nM.
Consider B20, for which the Affinity came to 0.12 nM.
The same measure, in the same setting: under B24 stands 0.1 nM.

The target is the same in the next experiment. Briefly: affinity by IC50 ELISA (so named in paragraph 380). This is another data set of the same source.
B15: the Affinity was 0.13 nM.
In the case of B17, the Affinity was determined as 0.31 nM.
In the case of B19, the Affinity was determined as 0.18 nM.
The same measure, in the same setting: with B21 the figure was 0.07 nM.
Consider B22, for which the Affinity came to 0.14 nM.
Still for that read-out and setting: under B23 stands 0.12 nM.

A further experiment has the same target. The experiment is described as follows: affinity by IC50 ELISA (so named in paragraph 380). This is another data set of the same source.
B2: the Affinity came out at 0.16 nM.
Turning to B3, the Affinity came out at 0.18 nM.
Consider B4, for which the Affinity was 0.22 nM.

For a further experiment the target is unchanged. The experiment is described as follows: affinity by IC50 ELISA (so named in paragraph 380). The source holds these as a separate data set.
The molecule B5 had an Affinity of 0.04 nM.
The same measure, in the same setting: under B6 stands 0.05 nM; under B7, 0.04 nM.
For the molecule B8, the Affinity worked out at 0.04 nM.
Still for that read-out and setting: with B10 the figure was 0.04 nM.

Source of the values: US20080267974A1 (SCHERING, published 2008).
